Source: PMC11633383, “Role of VapBC4 toxin-antitoxin system of Sulfolobus acidocaldarius in heat stress adaptation” (mBio, 2024)

Molecular target: T1, VapC4 toxin (Saci_1813) with a C-terminal histidine tag (Sulfolobus acidocaldarius DSM639, UniProt Q4J7W2 1-140, FITC (Alexa-488) fluorescent probe, site not stated, F/P ratio approximately 0.5 (in the FRET assay only))
T1 construct: also called Saci VapC4; pAG153; not shown: His tag, C-terminal, kept
T1 sequence (looked up): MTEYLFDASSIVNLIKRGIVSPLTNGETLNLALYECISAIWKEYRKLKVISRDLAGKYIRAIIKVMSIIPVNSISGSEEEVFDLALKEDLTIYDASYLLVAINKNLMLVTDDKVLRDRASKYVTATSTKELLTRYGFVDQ
Experiment: FRET or BRET; FITC-labelled VapC4 (100 nM, donor) titrated with TRITC-labelled VapB4 (25-2,000 nM, acceptor); excitation 495 nm, FITC emission at 520 nm, 60°C; fit to a hyperbolic binding equation
Details: both partners purified

B1: VapB4 antitoxin (Saci_1812) with a C-terminal histidine tag (natural protein, Sulfolobus acidocaldarius DSM639, UniProt Q4J7W4 1-77, looked up)
chain: MDSSGYVTISAKVPRELKELMDKYGIKPGPVIRKALEEEVRRRAIQELEKELKDLKEKSQISDEDVARLIREDRESR
modifications: TRITC (Alexa-532) fluorescent probe, site not stated, F/P ratio approximately 0.5 (in the FRET assay only)
notes: Unlabelled in the RNase neutralisation assay, TRITC-labelled in FRET; also called pAG154; source: E. coli BL21(DE3)-RIL, purified (Ni2+-NTA, dialysis)
- Kd: 40 ± 2.2 nM
